Values of other authors in patent US20140213990A1, “COMPOSITIONS AND METHODS FOR TREATING SURFACE WOUNDS” (priority 2013, published 2014).

Experiments:
[1] = Phase III clinical trials
[2] = test system: diabetic foot ulcers; settings: at 20 weeks of treatment

Becaplermin
patients in whom cancer appeared [1]: 80%
closure (healing) rate for diabetic foot ulcers [2]: 44%
